Laboratory results from the RNAGym collection of RNA variant scans (doi:10.1073/pnas.2313332121).
This sample holds only a part of the variants without activity.

B1: TPR 5TU (parent)
chain: GGAUCUUCUCGAUCUAACAAAAAAGACAAAUCUGCCACAAAGCUUGAGAGCAUCUUCGGAUGCAGAGGCGGCAGCCUUCGGUGGCGCGAUAGCGCCAACGUUCUCAACUAUGACACGCAAAACGCGUGCUCCGUUGAAUGGAGUUUAUCAUG

Variants of: B1
Assay: polymerase ribozyme fitness, log enrichment relative to wild type (log ratio); higher = more active; in vitro selection for triplet polymerase activity
Procedure, shortened: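 Input and output libraries were sequenced on Illumina after a single in vitro selection round, run in triplicate on PCR-built, transcribed mutant libraries of each subunit of a heterodimeric triplet polymerase ribozyme. Selection annealed libraries to a biotinylated primer, the partner subunit and triplets, incubated them frozen at −7 °C, then gel-excised extended constructs for streptavidin-bead capture and RT-PCR. Genotypes with ≥10 input reads and ≥1 read per output were kept. Fitness is the logarithm, taken in base 2, of genotype enrichment divided by wild-type enrichment, using inverse-variance-weighted replicate averages.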

Row | Variant | polymerase ribozyme fitness (log ratio)
1 | C8G A22C A24U C69U A73U C93U | ≤ -4.2
2 | U9A A24U A121U A122U G141A | ≤ -4.2
3 | U9C G71A C95U U151C | ≤ -4.2
4 | C8A G58C U82A A98G G136U | ≤ -4.2
5 | C8U C79G G84A G94C G136C A138G A150G | ≤ -4.2
6 | C8G C18G C57G G83U C118U G128A | ≤ -4.2
7 | C8G A20C A73U C99G A106G G140A U144G A147C | ≤ -4.2
8 | C8G A12U G25A A28U A39C G58C G94U U144G | ≤ -4.2
9 | C8U G83A | -2.94
10 | C8U G83U | -3.5
11 | C8U G83C | -2.8
12 | C8U A41C U44G G81C G92U C93G | ≤ -4.2
13 | C8U G141C | -2.78
14 | U9A A16U A19U C27G U77C G84A G100C G133U G141A U145A | ≤ -4.2
15 | C8U A19U G62A G86C A113C | ≤ -4.2
16 | C8U U53A | -3.41
17 | C8U A24U A30U U90A G92C | ≤ -4.2
18 | C8G A24G A30G G70A G136C | ≤ -4.2
19 | U9C A16G U44G A49G A64G C105G G124A | ≤ -4.2
20 | C8G G48C G80U G84U C125U G141U | ≤ -4.2
21 | U9C A22C C96G C99G G128U | ≤ -4.2

Row | Variant | polymerase ribozyme fitness (log ratio)
22 | C8U C35A C72U C76U G88A G92U A121U | ≤ -4.2
23 | U9A A22C A37U U45A U53A G84A A147U | ≤ -4.2
24 | U9A G34A C57A C85A A91U | ≤ -4.2
25 | C8G G34U A73C C85G U148G | ≤ -4.2
26 | C8G A20G U44G G48U G84U G128U U144A | ≤ -4.2
27 | C8G G50C U55C G100A A115G U127C | ≤ -4.2
28 | C8G C125A | -3.82
29 | C8G A16U C79G G141A | ≤ -4.2
30 | U9C A29U U31C U44A C75A C85A G141A | ≤ -4.2
31 | C8U A98U U135G U148C | ≤ -4.2
32 | C8U A66C C93U G124A | ≤ -4.2
33 | C8G U31A G34U C57G C93G | ≤ -4.2
34 | C8U A26U A120G C125U | ≤ -4.2
35 | C8U G81U C95U | ≤ -4.2
36 | U9A C14U A49U C51U G86U A89U | ≤ -4.2
37 | C8U C43G A47U A64G G70A C79G C99G U135C G136C U145A | ≤ -4.2
38 | C8U A28U G58A G74C U127G G133C A142U C149G | ≤ -4.2
39 | U9A A26U A47C A49G G84A G86C | ≤ -4.2
40 | C8U A19C G50A C96U | ≤ -4.2
41 | U9A G11A C14U A19G C76A U82G C103A C116U | ≤ -4.2
42 | U9C U56A G83A C87U | ≤ -4.2

Row | Variant | polymerase ribozyme fitness (log ratio)
43 | C8A U44A C51A A66G C85U U130G | ≤ -4.2
44 | U9A A23G G68C C79U G94C C105G G143A | ≤ -4.2
45 | C8A U13G G50C C76G C118A | ≤ -4.2
46 | C8G G92C | -3.1
47 | C8A C35U C43A G83C G141U | ≤ -4.2
48 | C8U G84U | -4.13
49 | C8G A30G G48A C69G G86A G143U | -4.06
50 | C8G G143C | -4.08
51 | C8A C14G U53C G58A G62C C85G | ≤ -4.2
52 | U9A C32A U33G A49U C51U U53A C54U G84U C103A C108G C118G C149U | ≤ -4.2
53 | U9A A41U G74A A89G C132U | ≤ -4.2
54 | U9A C43A A147U U151G | ≤ -4.2
55 | U9A A26G A66C A122U A137U G143C U145A | ≤ -4.2
56 | C8G A24G U33G G59A G71A G74A U144C | ≤ -4.2
57 | C8A U55A A66C G67U U77A C99U C108U G133C G136A | ≤ -4.2
58 | U9C U55G | -3.53
59 | U9A A12C A23G G42C C51A A120C A121U | ≤ -4.2
60 | U9A U13G C32G C51G G70U U127G | ≤ -4.2
61 | C8U A28G G34A C36U G86U A91G A110U | -4.19
62 | C8U A52C G68C | ≤ -4.2
63 | C8U U82G C87A | ≤ -4.2

Row | Variant | polymerase ribozyme fitness (log ratio)
64 | U9C A30U C35A U82A A91U C93A G140U G143A U151G | ≤ -4.2
65 | C8A C85U | -2.6
66 | C8G C14A A39C G74U G143U | ≤ -4.2
67 | U9A U55A C85U G94A C114U G140C | ≤ -4.2
68 | C8G A24G C54U G68A G71A A91U C95A | ≤ -4.2
69 | C8G C43U G88C C93A U146G | ≤ -4.2
70 | U9C A37G G42C A73U G92C C103U | ≤ -4.2
71 | C8G C14G C18G C96U A137U | ≤ -4.2
72 | U9A C35U U55A A91C | ≤ -4.2
73 | C8U C87U | -2.59
74 | U9C A21U G48A A91U C99U | ≤ -4.2
75 | C8A U144C | -4.16
76 | C8A G88U G92U C95U A106C U127G | ≤ -4.2
77 | U9A C85A U90C U104A U127G G140A | ≤ -4.2
78 | C8U G83U A97G A142U | -4.17
79 | U9A U15C G48A G50C C96A G133C | ≤ -4.2
80 | U9A U13G G42U U61A A91U A106G A142C | ≤ -4.2
81 | U9A A24U A37C G42C G50C G58A C85G A91C U148A | ≤ -4.2
82 | U9A C125G | ≤ -4.2
83 | C8A G58C | -4.1
84 | C8U C18G C35A U53A G58C | ≤ -4.2
